Laboratory results taken from US20250034239A1 (LINNO PHARMACEUTICALS, published 2025).

Key:
[1] = molecular target: T1, human transferrin (Sigma T3309) (human, UniProt P02787 20-698); assay: flow cytometry on HEK293F-hTfR1 cells with human transferrin, pH 6.0; grade by % binding (10% > + ≥ 5%); non-specific binding column also +
T1 construct: mature; same polypeptide; also called native human transferrin; hTf
Protocol: (§1) HEK293F-hTfR1 cells were prepared by transfecting hTfR1-expressing plasmid, with a GFP tag, into HEK293F cells. Stable pool was used for this assay. Briefly, the engineered HEK293F cells expressing hTfR1 were cultured with OPM-293 CD05 medium at 37° C., with 8% CO₂ and saturated humidity in cell shaker. […] The cells were washed twice by centrifugation at 300 g for 5 min at 4° C., before rabbit anti-OVA antibodies and a secondary anti-rabbit IgG-AF647 (all prepared in blocking buffer). The cells were scanned with CytoFLEX (Beckman).

[2] = molecular target: T1, human transferrin (Sigma T3309); assay: flow cytometry on HEK293F-hTfR1 cells with human transferrin, pH 7.4
Protocol: as §1

human properdin = molecular target: T2, human properdin (human, UniProt P27918 28-469, biotinylated); assay: ELISA on biotinylated truncated variants of human properdin, VHH-Fc at 10 µg/ml
T2 construct: Recombinant, made in house; tag not described; In the hemolysis assays the target is the properdin of human serum; also called human properdin-biotin; biotin human Properdin
T2 sequence (P27918 28-469 limits assumed): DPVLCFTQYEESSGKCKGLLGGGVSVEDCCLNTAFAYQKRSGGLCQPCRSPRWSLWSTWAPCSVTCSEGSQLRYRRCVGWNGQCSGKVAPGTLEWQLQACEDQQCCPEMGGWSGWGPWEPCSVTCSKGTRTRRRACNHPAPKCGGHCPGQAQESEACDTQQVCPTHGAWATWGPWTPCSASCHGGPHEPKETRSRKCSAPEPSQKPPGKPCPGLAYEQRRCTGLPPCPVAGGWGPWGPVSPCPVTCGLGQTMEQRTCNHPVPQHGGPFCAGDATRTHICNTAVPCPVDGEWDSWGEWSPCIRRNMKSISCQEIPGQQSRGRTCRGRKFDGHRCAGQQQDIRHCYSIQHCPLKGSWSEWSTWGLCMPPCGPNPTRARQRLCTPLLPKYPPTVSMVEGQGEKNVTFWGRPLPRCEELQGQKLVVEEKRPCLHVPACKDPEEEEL
Protocol: 96-well immunoplates were coated with 100 μl/well 1 μg/ml streptavidin and incubate at 4° C. overnight. Wells were washed with PBST for 3 times and blocked with 200 μl of 1% BSA/PBS at RT for 1 h. […] Plates were washed with PBST for 3 times, 100 μl/well 10 μg/ml VHH-Fcs were added and incubate at RT for 1 h. Plates were washed with PBST for 3 times and add 100 μl goat anti-human Fc-HRP (Sigma, A0170) diluted 1/5000 in 1% BSA/PBST to each well and incubate at RT for 1 h. Plates were then washed as before and add 100 μl TMB substrate and incubate at RT for 15 min. 100 μl per well stop solution was added to stop the reaction, and the plates were read with microplate reader at 450 nm.

[3] = molecular target: T3, human transferrin receptor 1 on HEK293F-hTfR1 cells (human, UniProt P02786 1-760); assay: flow cytometry on HEK293F-hTfR1 cells with or without transferrin
T3 construct: whole, on cells
T3 sequence (P02786 whole entry): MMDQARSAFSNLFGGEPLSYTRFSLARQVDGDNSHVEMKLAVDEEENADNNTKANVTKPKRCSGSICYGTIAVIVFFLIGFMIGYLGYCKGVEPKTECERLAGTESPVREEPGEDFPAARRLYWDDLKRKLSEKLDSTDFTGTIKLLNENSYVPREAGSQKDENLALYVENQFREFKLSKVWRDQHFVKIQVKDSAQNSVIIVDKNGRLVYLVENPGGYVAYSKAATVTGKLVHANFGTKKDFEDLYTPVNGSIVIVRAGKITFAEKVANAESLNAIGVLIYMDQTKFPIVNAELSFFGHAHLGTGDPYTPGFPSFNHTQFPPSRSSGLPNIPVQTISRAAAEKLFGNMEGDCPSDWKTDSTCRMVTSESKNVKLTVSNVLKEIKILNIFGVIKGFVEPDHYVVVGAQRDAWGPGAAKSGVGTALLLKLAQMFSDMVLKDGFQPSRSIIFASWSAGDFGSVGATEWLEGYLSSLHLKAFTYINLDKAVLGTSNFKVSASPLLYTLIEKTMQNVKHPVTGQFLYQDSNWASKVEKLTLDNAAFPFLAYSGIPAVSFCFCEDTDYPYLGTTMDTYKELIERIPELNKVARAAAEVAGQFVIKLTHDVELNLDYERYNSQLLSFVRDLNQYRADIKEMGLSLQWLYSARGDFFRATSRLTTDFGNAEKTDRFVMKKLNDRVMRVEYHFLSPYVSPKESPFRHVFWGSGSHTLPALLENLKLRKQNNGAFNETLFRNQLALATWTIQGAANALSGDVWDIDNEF
Protocol: as §1

[4] = molecular target: T1, human transferrin (Sigma T3309); assay: flow cytometry on HEK293F-hTfR1 cells with human transferrin, pH 6.0
Protocol: as §1

[5] = molecular target: T1, human transferrin (Sigma T3309); assay: flow cytometry on HEK293F-hTfR1 cells with human transferrin, pH 7.4; grade by % binding (10% > + ≥ 5%)
Protocol: as §1

[6] = molecular target: T1, human transferrin (Sigma T3309); assay: flow cytometry on HEK293F-hTfR1 cells with human transferrin, pH 7.4; grade by % binding (+++ ≥ 15%)
Protocol: as §1

T1 sequence (P02787 20-698): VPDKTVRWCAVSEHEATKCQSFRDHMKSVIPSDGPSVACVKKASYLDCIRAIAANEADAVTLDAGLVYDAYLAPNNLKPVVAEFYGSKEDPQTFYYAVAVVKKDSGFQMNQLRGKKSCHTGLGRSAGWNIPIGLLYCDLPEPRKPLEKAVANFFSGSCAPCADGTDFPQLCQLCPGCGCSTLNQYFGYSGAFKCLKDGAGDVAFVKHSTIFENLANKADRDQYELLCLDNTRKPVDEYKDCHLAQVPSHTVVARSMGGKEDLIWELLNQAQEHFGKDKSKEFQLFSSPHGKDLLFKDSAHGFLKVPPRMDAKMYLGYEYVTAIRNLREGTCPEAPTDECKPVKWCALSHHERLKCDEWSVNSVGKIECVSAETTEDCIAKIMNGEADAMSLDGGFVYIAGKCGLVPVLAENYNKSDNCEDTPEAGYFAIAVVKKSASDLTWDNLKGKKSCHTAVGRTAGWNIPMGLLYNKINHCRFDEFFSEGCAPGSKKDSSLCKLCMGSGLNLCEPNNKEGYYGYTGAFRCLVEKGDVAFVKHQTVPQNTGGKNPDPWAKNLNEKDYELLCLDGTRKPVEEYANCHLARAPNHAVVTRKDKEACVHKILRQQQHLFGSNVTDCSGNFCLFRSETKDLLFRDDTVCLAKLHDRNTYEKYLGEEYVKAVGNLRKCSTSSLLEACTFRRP

B1: SLN0059 VHH-OVA-His (VHH)
chain: HVQLVESGGGSVQSGGSLRLSCAASGITISNYYMTWFRQAPGKEREGVAGLTRADVTLYADSVKGRFTISRDNAKNTLYLQMNSLKPEDTAMYYCAAADRFRVGLREADFSAWGQGTQVTVSSGSIGAASMEFCFDVFKELKVHHANENIFYCPIAIMSALAMVYLGAKDSTRTQINKVVRFDKLPGFGDSIEAQCGTSVNVHSSLRDILNQITKPNDVYSFSLASRLYAEERYPILPEYLQCVKELYRGGLEPINFQTAADQARELINSWVESQTNGIIRNVLQPSSVDSQTAMVLVNAIVFKGLWEKAFKDEDTQAMPFRVTEQESKPVQMMYQIGLFRVASMASEKMKILELPFASGTMSMLVLLPDEVSGLEQLESIINFEKLTEWTSSNVMEERKIKVYLPRMKMEEKYNLTSVLMAMGITDVFSSSANLSGISSAESLKISQAVHAAHAEINEAGREVVGSAEAGVDAASVSEEFRADHPFLFCIKHIATNAVLFFGRCVSP
notes: Tested as recombinant VHH-OVA-His; not shown: His tag
percent binding (flow cytometry, VHH/Tf on hTfR1-overexpressing cells, pH 6.0) [1]: 5 to 10%
percent binding (flow cytometry, VHH/Tf on hTfR1-overexpressing cells, pH 7.4) [2]: < 5%

B2: SLN12083 VHH-Fc (Fc fusion)
VHH: EVQLVESGGGLVQPGGSLRLSCAASEYTSSSYCMAWIRQAPGKGLEGVAAIDTDGSTSYTDSVKGRFTISRDNSKNTLYLQMNSLRAEDTAVYYCAAAPWLLAYGDYCVTRPDFGEWGQGTLVTVSS
notes: not shown: its position and linker are not fixed for the humanized single VHH
binding result (human properdin): binds

B3: SLN0043 VHH-OVA-His (VHH)
chain: DVQLVESGGGSVQAGGSLRLSCAASGVTWSRDWMAWFRQAPGKEREGVAAFVPSIGSTFYVDSVKGRFTISQDNAKNTLFLQMNSLKPEDTAMYYCATDPLWGRKYGGSWSDPSEYNYWGQGTQVTVSSGSIGAASMEFCFDVFKELKVHHANENIFYCPIAIMSALAMVYLGAKDSTRTQINKVVRFDKLPGFGDSIEAQCGTSVNVHSSLRDILNQITKPNDVYSFSLASRLYAEERYPILPEYLQCVKELYRGGLEPINFQTAADQARELINSWVESQTNGIIRNVLQPSSVDSQTAMVLVNAIVFKGLWEKAFKDEDTQAMPFRVTEQESKPVQMMYQIGLFRVASMASEKMKILELPFASGTMSMLVLLPDEVSGLEQLESIINFEKLTEWTSSNVMEERKIKVYLPRMKMEEKYNLTSVLMAMGITDVFSSSANLSGISSAESLKISQAVHAAHAEINEAGREVVGSAEAGVDAASVSEEFRADHPFLFCIKHIATNAVLFFGRCVSP
notes: as for B1
binding result [3]: no binding (tested: 10 µg/mL)
percent binding (flow cytometry, VHH/Tf on hTfR1-overexpressing cells, pH 6.0) [4]: < 5%

B4: SLN0057 VHH-OVA-His (VHH)
chain: HVQLVESGGGSVQAGGSLRLSCAASGHTYSIYYMAWFRQAPGKEREGVAVIYRGGSTTYADSAKGRFTVSQDNGKNTVYLQMNSLKAEDTAMYYCAAAHVLHVSSLLPGGYPYWGQGTLVTVSSGSIGAASMEFCFDVFKELKVHHANENIFYCPIAIMSALAMVYLGAKDSTRTQINKVVRFDKLPGFGDSIEAQCGTSVNVHSSLRDILNQITKPNDVYSFSLASRLYAEERYPILPEYLQCVKELYRGGLEPINFQTAADQARELINSWVESQTNGIIRNVLQPSSVDSQTAMVLVNAIVFKGLWEKAFKDEDTQAMPFRVTEQESKPVQMMYQIGLFRVASMASEKMKILELPFASGTMSMLVLLPDEVSGLEQLESIINFEKLTEWTSSNVMEERKIKVYLPRMKMEEKYNLTSVLMAMGITDVFSSSANLSGISSAESLKISQAVHAAHAEINEAGREVVGSAEAGVDAASVSEEFRADHPFLFCIKHIATNAVLFFGRCVSP
notes: as for B1
percent binding (flow cytometry, VHH/Tf on hTfR1-overexpressing cells, pH 6.0) [1]: 5 to 10%
percent binding (flow cytometry, VHH/Tf on hTfR1-overexpressing cells, pH 7.4) [2]: < 5%

B5: SLN12075 VHH-Fc (Fc fusion)
VHH: EVQLVESGGGLVQPGGSLRLSCAASAYIYSSYCMGWFRQAPGKGLERVSVINSDGRTSYADSVKGRFTISRDNSKNTLYLQMNSLRAEDTAVYYCAAVILPPTDGMEYSCNYPAAEYNYWGQGTLVTVSS
notes: as for B2
binding result (human properdin): binds

B6: SLN0064 VHH-OVA-His (VHH)
chain: HVQLVESGGGSVQAGGSLRLSCAASGYSVSWFCMGWFRQAPGLEREGVAVIDVDSIARYGDSVKGRFTISQGNSKDTVYLQMNGLKPEDTAMYYCAAKTERQCRWNWMDWRTYDYPHWGQGTQVTVSSGSIGAASMEFCFDVFKELKVHHANENIFYCPIAIMSALAMVYLGAKDSTRTQINKVVRFDKLPGFGDSIEAQCGTSVNVHSSLRDILNQITKPNDVYSFSLASRLYAEERYPILPEYLQCVKELYRGGLEPINFQTAADQARELINSWVESQTNGIIRNVLQPSSVDSQTAMVLVNAIVFKGLWEKAFKDEDTQAMPFRVTEQESKPVQMMYQIGLFRVASMASEKMKILELPFASGTMSMLVLLPDEVSGLEQLESIINFEKLTEWTSSNVMEERKIKVYLPRMKMEEKYNLTSVLMAMGITDVFSSSANLSGISSAESLKISQAVHAAHAEINEAGREVVGSAEAGVDAASVSEEFRADHPFLFCIKHIATNAVLFFGRCVSP
notes: as for B1
percent binding (flow cytometry, VHH/Tf on hTfR1-overexpressing cells, pH 6.0) [1]: 5 to 10%
percent binding (flow cytometry, VHH/Tf on hTfR1-overexpressing cells, pH 7.4) [5]: 5 to 10%

B7: SLN12068 VHH-Fc (Fc fusion)
VHH: EVQLVESGGGLVQPGGSLRLSCAAFEYYYCMGWFRQAPGKGLEGVASFDTSDGSKYYADSVKGRFTISKDNSKNTLYLQMNSLRAEDTAVYYCAARPFYVGGTCLPRLTDFSIWGQGTLVTVSS
notes: as for B2
binding result (human properdin): binds

B8: SLN0062 VHH-OVA-His (VHH)
chain: QVQLVESGGGSVQSGGSLRLSCAASGYTFSRNCMGWFRQTPGKERERVATVYPGGGSTYYADSVKGRFTFSQDNAKNAIYLQMNTLKPEDTGMYYCAASRRIWSCGSGAGSYDYWGQGTQVTVSSGSIGAASMEFCFDVFKELKVHHANENIFYCPIAIMSALAMVYLGAKDSTRTQINKVVRFDKLPGFGDSIEAQCGTSVNVHSSLRDILNQITKPNDVYSFSLASRLYAEERYPILPEYLQCVKELYRGGLEPINFQTAADQARELINSWVESQTNGIIRNVLQPSSVDSQTAMVLVNAIVFKGLWEKAFKDEDTQAMPFRVTEQESKPVQMMYQIGLFRVASMASEKMKILELPFASGTMSMLVLLPDEVSGLEQLESIINFEKLTEWTSSNVMEERKIKVYLPRMKMEEKYNLTSVLMAMGITDVFSSSANLSGISSAESLKISQAVHAAHAEINEAGREVVGSAEAGVDAASVSEEFRADHPFLFCIKHIATNAVLFFGRCVSP
notes: as for B1
percent binding (flow cytometry, VHH/Tf on hTfR1-overexpressing cells, pH 6.0) [1]: 5 to 10%
percent binding (flow cytometry, VHH/Tf on hTfR1-overexpressing cells, pH 7.4) [5]: 5 to 10%

B9: SLN0042 VHH-OVA-His (VHH)
chain: DVQLVESGGGSVQAGGSLRLSCAASGYTRSFTCMGWFRQAPGKEREGVATINPGTGSTYYADSVKGRFSISQDNAKNTVYLQMNTLKPEDTAMYYCAATQLFGCGSLAKSLFGYWGQGTLVTVSSGSIGAASMEFCFDVFKELKVHHANENIFYCPIAIMSALAMVYLGAKDSTRTQINKVVRFDKLPGFGDSIEAQCGTSVNVHSSLRDILNQITKPNDVYSFSLASRLYAEERYPILPEYLQCVKELYRGGLEPINFQTAADQARELINSWVESQTNGIIRNVLQPSSVDSQTAMVLVNAIVFKGLWEKAFKDEDTQAMPFRVTEQESKPVQMMYQIGLFRVASMASEKMKILELPFASGTMSMLVLLPDEVSGLEQLESIINFEKLTEWTSSNVMEERKIKVYLPRMKMEEKYNLTSVLMAMGITDVFSSSANLSGISSAESLKISQAVHAAHAEINEAGREVVGSAEAGVDAASVSEEFRADHPFLFCIKHIATNAVLFFGRCVSP
notes: as for B1
binding result [3]: no binding (tested: 10 µg/mL)
percent binding (flow cytometry, VHH/Tf on hTfR1-overexpressing cells, pH 6.0) [4]: < 5%
percent binding (flow cytometry, VHH/Tf on hTfR1-overexpressing cells, pH 7.4) [6]: ≥ 15%
